Results as given in article PMC10080908.
Where “and” joins values, the source holds several entries; their conditions need not be identical. Equal entries are not always repeated.

How the values were obtained:
[1] = biological target: UBXN7-UAS recombinant protein (human) (UniProt O94888); test: ITC; VP-ITC, 25 °C, PBS pH 7.4 with 1 mM TCEP; 200 µM RNF111 RING domain injected (20 x 10 µl) into 10 µM UBXN7-WT or UBXN7-UAS or 15 µM UBXN7-∆UAS; single binding site model
UBXN7-WT (human) [2] = biological target: UBXN7-WT (human) (UniProt O94888); test: as above
Chain of UBXN7-WT (human) (O94888 whole entry, the tested form may be a part): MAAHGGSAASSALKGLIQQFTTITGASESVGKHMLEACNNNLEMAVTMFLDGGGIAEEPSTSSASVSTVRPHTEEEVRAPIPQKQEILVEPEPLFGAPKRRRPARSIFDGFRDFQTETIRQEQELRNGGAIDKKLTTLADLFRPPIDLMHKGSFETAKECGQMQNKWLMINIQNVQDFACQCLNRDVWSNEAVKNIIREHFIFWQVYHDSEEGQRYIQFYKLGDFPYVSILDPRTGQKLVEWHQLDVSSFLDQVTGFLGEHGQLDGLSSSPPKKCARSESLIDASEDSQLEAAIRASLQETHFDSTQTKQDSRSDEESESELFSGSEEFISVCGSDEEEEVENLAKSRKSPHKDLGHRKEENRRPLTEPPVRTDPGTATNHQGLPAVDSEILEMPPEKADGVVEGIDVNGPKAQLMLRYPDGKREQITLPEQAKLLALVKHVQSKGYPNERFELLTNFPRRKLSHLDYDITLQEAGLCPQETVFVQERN

UBXN7-WT (human) [3] = biological target: UBXN7-WT (human) (UniProt O94888); test: ITC; VP-ITC; 200 µM RNF111 RING domain injected (20 x 10 µl) into 10 µM UBXN7-WT or UBXN7-UAS, or into 15 µM UBXN7-∆UAS, in the cell; 25 °C; phosphate-buffered saline pH 7.4, 1 mM TCEP; single binding site model

Chain of UBXN7-UAS recombinant protein (human) (O94888 94-284): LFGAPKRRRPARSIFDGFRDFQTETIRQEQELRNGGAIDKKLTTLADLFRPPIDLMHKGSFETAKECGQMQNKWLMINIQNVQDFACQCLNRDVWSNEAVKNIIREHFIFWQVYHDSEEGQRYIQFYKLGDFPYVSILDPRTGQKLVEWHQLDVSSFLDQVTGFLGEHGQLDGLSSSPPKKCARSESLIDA

| Substance | Kd [1] [nM] | stoichiometry N [1] | Kd (UBXN7-WT (human) [2]) [nM] | stoichiometry N (UBXN7-WT (human) [2]) | Kd (UBXN7-WT (human) [3]) | stoichiometry N (UBXN7-WT (human) [3]) | Kd (UBXN7-WT (human) [3]; mean) [nM] | stoichiometry N (UBXN7-WT (human) [3]; mean) |
| --- | --- | --- | --- | --- | --- | --- | --- | --- |
| RNF111-RING recombinant protein (domain or fragment) | 900 | 1 | 2300 | 1 |  |  |  |  |
| RNF111 RING domain (RNF111-RING, aa 895 to Cter) (domain or fragment) |  |  |  |  | 2490 nM and 2260 nM | 0.928 and 1.11 | 2370 | 1.02 |
